Experimental data as given in EP4659811A1 (Université de Strasbourg, dated 2025).
Where a chain is given by its changes, count along the chain named.

B1: antibody C10P8 (antibody, V domains shown)
VH: QVQLQESGPGLVKPSQTLSLTCTVSGGSISSGRYYWSWIRQPAGKGLEWIGRVYFSGSTNYNPSLKNRVTLSVDTSKNQFSLKLSSVIAADTAVYYCARAVRDYGDSYSFDYWGQGTLVTVSS
VL: QSALTQPASVSGSPGQSITISCTGSSSDIGGYNYVSWYQVHPGKAPHLKIYDVVNRPSGVSNRFPGSKSGNTASLTISGLLADDEAYYYCCSYSIRGTPVFGGGTKLTVL
B2: antibody C6P8 (antibody, V domains shown)
VH: EVQLVESGGGLVQPGGSLKLSCAASGFTFSGSEIHWVRQASGKGLEWIGRVRSRANRHATGYSESVKGRFTISRDDSKNTASLQLNSLKIEDTAVYYCTGVRGVISRYFAMDVWGQGTTVTVSS
VL: SYVLTQTPSVSVAPGQTARITCGGNNIGSNSVHWYQQKPGQAPILVVYDDSERPSGIPERFSGSNSGNTATLTISRVEGGDEADYQCQVWDRRGDLLVFGGGTKLTVL
B3: antibody F11P5 (antibody, V domains shown)
VH: QVQLVQSGSELKKPGASVKVSCKASAYTFTNSAINWVRQAPGQGLEWMGWINTNTGNPAYAQGFRGRFVFSLDTSVSEAYLQISNLKAEDTATYYCTVPYNFGGDHNSYYFFGVDIWGQGTTVTVSS
VL: QSALTQPASVSGSPGQSITISCTGSSSDVGSYNLVSWFQQHPAKAPKVMIYEGTKRPSGVSDRFSGSKSGNTASLTISGLQAEDEADYYCCSYAGSNTFVFGTGTKVSVL
B4: antibody B7P3 (antibody, V domains shown)
VH: EVQLVESGGGVVQPGRSLRLSCAASGFTFSNFGMHWVRQPPGKGLEWVAVISYDGSDKFYADSVKGRFTISRDNFKNTLYVQMNSLRAEDTAVYYCAKDRVRTKYYYDHSGPFDYWGRGTLVTVSS
VL: SYVLTQPPSVSVAPGQTARIACGGNNIGSKSVHWYQQRPGQAPVLVVYDDDDRPSGIPERFSGSNSGNTATLTISRVEAGDEADYFCQVWMTNSDRPVFGGGTKLTVL
B5: antibody C4P7 (antibody, V domains shown)
VH: EVQLLESGGGLVQPGGSLRLSCAASGFTFSSYAMSWVRQAPGKGLEWVSSLTGSGGSTYYRDSVKGRFTIFRDNSKKTLYMQMNSLRAEDTAVYYCAKEGAYSYDFWYFDLWGRGTLVTVSS
VL: EIVLTQSPGTLSLSPGERATLSCRASQTVSGNYLAWYQQKPGQSPSLLIYGASSRATGIPDRFTGSGSGTDFTLTISRLEPADFAVYYCQQYGRPLTFGGGTKVEIK
B6: antibody C10P7 (antibody, V domains shown)
VH: QVQLVQSGSEVKKPGTSVKVSCKASGETYVGHSISWVRQAPGAGLEWMGWISLHNGNVKYAQKLQGRVTMTTDTSTITAYMELRNLTSDDTAVYYCARVPMKIYGVIVFGEYYYDQLDVWGQGTTVTVSS
VL: QSALTQPPSASGSPGQSVTISCTGTGSDVGGYNYVSWYQQHPGKAPKLMIYEVSKRPSGVPDRFSGSKSGNTASLTVSGLQAEDEADYYCSSYAGSKVVFGGGTKLTVL
B7: antibody B9P6 (antibody, V domains shown)
VH: EVQLVESGGGLVQPGGSLRLSCAASGFTFRSYTMDWVRQAPGKGLEWVSCISGSSNHKYYADSVRGRFTISRDNAKNSLFLQMNSLRAEDSAVYYCAREDDILTPLYGMDVWGPGTTVTVSS
VL: EIVLTQSPDTLSLSPGARATLSCRASQSVRSNYLAWYQQKPGQAPRLLIYGASSRATAIPDRFSGSGSGTDFTLTITRLEPEDFAVYYCHQYGSSPRTFGQGTKVEIK
B8: antibody G11P1 (antibody, V domains shown)
VH: B7 VH with T33S, C50Y, H57Q, A61T
VL: B7 VL with G93A
B9: antibody E11P6 (antibody, V domains shown)
VH: B7 VH with T33S, C50Y, H57Q, A61T
VL: B7 VL with F72L, G93A
B10: antibody E9P7 (antibody, V domains shown)
VH: B7 VH with A23T, F80L
VL: B7 VL
B11: antibody B10P5 (antibody, V domains shown)
VH: EVQLVESGGGLVQPGGSLRLSCSASGFTFSTYTMNWVRQAPGKGLDWVSYISSRSTSIYYADSVKGRFTISRDNAKNSLYLHMTSLRAEDTAVYYCVRDRGYYGSNWFDSWGQGTLVTVSS
VL: QSALTQPRSVSGSPGQSVTISCTGTSSDVGNYNYVSWYQQHPGKAPRLMISDVTKRPSGVPDRFSGSKSGNTASLTISGLQAEDEGDYYCCAYAGSYTLVFGGGTKLTVL
B12: antibody B3P3 (antibody, V domains shown)
VH: EVQLVESGGGVVQPGRSLRLSCVTSGFTFESYGIHWVRQAPGKGLEWVAVISNDGSIEDYAGSVKGRFTISGDKAKNTVYLQVNSLRPDDTAVYYCAKDAVGITGGSLYYSYGMDVWGQGTTVTVSS
VL: DIQMTQSPSPLSAFIGGRVTITCRASQTIKNYLNWYQQKPGEAPKLLIYTASTLQNGVPSRFSGSRSGTDFTLTITSLQPEDFATYYCQQSYSAPYSFGQGTKLEIK
B13: antibody E10P5 (antibody, V domains shown)
VH: QVQLQESGPGLVKPSQTLSLTCSVSGGSISSGNYYWSWIRQPAGKGLEWIGRIYTSGNTNYNPSLKSRVTMSVDTSKNQFSLKLSSVTATDTAVYYCARVRRDGYNAFDYWGQGTLVTVSS
VL: SYELTQPPSVSVSPGQTASIDCSGHNLGDKFTCWYQQKPGQSPVLVIYQDSKRPSGIPERFSGSNSGNTATLTISGTQAMDEADYYCQAWDSDTLYVFGTGTTVTVL
B14: antibody G7P3 (antibody, V domains shown)
VH: EVQLVESGGGLVQPGGSLRLSCAASGFSFGSYSMNWVRQAPGKGLEWVSHISSGSSSIYYADSVKGRFTISRDSVKNSLYLQMNNLRAEDTAVYYCARGWTGYDAFDIWGQGTMVTVSS
VL: DIQMTQSPSSLSASVGDRVTITCRASQVISNYLAWYQEKPGKVPKLLIYAASTLQSGVPSRFSGSGTGTDFTLTIRSLQPEDVATYYCQKYNNAPLTFGGGTKVEIK
B15: antibody E8P5 (antibody, V domains shown)
VH: B14 VH with Q13H, S28R, S31T, Y95F
VL: B14 VL with K42E, R76S

biological target: VP1 capsid protein on BKV pseudovirions of genotype Ia (BK-D; JF894228) (BK virus genotype Ia (BK-D)); assay: cell-based or functional assay

With B1 as the binder, how does the “Neutralization PSV IC50” value read?
Its value is > 12.5 µg/mL.

For B2, which “Neutralization PSV IC50” value is on record?
The value was 6.92 µg/mL.

For B3, which “Neutralization PSV IC50” value is on record?
The value was 0.492 µg/mL.

For B4, which “Neutralization PSV IC50” value is on record?
The value was 0.0004 µg/mL.

B5 was tested. Which “Neutralization PSV IC50” value did it give?
The value was 0.493 µg/mL.

How did the “Neutralization PSV IC50” value turn out when B6 was run?
The value was 6.56 µg/mL.

For B7, which “Neutralization PSV IC50” value is on record?
The value was 0.0371 µg/mL.

With B8 as the binder, how does the “Neutralization PSV IC50” value read?
The value was 0.112 µg/mL.

For B9, which “Neutralization PSV IC50” value is on record?
Its value is 0.216 µg/mL.

How did the “Neutralization PSV IC50” value turn out when B10 was run?
Its value is 0.277 µg/mL.

With B11 as the binder, how does the “Neutralization PSV IC50” value read?
Its value is > 50 µg/mL.

For B12, which “Neutralization PSV IC50” value is on record?
Its value is > 50 µg/mL.

With B13 as the binder, how does the “Neutralization PSV IC50” value read?
Its value is 0.0004 µg/mL.

For B14, which “Neutralization PSV IC50” value is on record?
The value was 0.0008 µg/mL.

For B15, which “Neutralization PSV IC50” value is on record?
The value was 0.0013 µg/mL.

biological target: VP1 capsid protein on BKV pseudovirions of genotype II (GBR-12; AB263920) (BK virus genotype II (GBR-12)); assay: cell-based or functional assay

For B1, which “Neutralization PSV IC50” value is on record?
Its value is > 12.5 µg/mL.

With B2 as the binder, how does the “Neutralization PSV IC50” value read?
Its value is 0.44 µg/mL.

How did the “Neutralization PSV IC50” value turn out when B3 was run?
The value was 1.56 µg/mL.

Which “Neutralization PSV IC50” value does the source give for B4 here?
The value was 3.43 µg/mL.

B5 was tested. Which “Neutralization PSV IC50” value did it give?
The value was 0.0609 µg/mL.

B6 was tested. Which “Neutralization PSV IC50” value did it give?
The value was 11.2 µg/mL.

For B7, which “Neutralization PSV IC50” value is on record?
The value was 0.0002 µg/mL.

With B8 as the binder, how does the “Neutralization PSV IC50” value read?
The value was 0.0008 µg/mL.

With B9 as the binder, how does the “Neutralization PSV IC50” value read?
The value was 0.0028 µg/mL.

How did the “Neutralization PSV IC50” value turn out when B10 was run?
Its value is 0.0003 µg/mL.

How did the “Neutralization PSV IC50” value turn out when B11 was run?
Its value is > 50 µg/mL.

B12 was tested. Which “Neutralization PSV IC50” value did it give?
Its value is > 50 µg/mL.

B13 was tested. Which “Neutralization PSV IC50” value did it give?
Its value is 0.0433 µg/mL.

With B14 as the binder, how does the “Neutralization PSV IC50” value read?
The value was 0.0054 µg/mL.

How did the “Neutralization PSV IC50” value turn out when B15 was run?
The value was 0.004 µg/mL.

biological target: VP1 capsid protein on BKV pseudovirions of genotype IVc2 (A-66H; AB369093) (BK virus genotype IVc2 (A-66H)); assay: cell-based or functional assay

For B1, which “Neutralization PSV IC50” value is on record?
Its value is > 12.5 µg/mL.

Which “Neutralization PSV IC50” value does the source give for B2 here?
Its value is 1.74 µg/mL.

Which “Neutralization PSV IC50” value does the source give for B3 here?
Its value is 46.5 µg/mL.

With B4 as the binder, how does the “Neutralization PSV IC50” value read?
The value was > 50 µg/mL.

Which “Neutralization PSV IC50” value does the source give for B5 here?
The value was > 3.12 µg/mL.

B6 was tested. Which “Neutralization PSV IC50” value did it give?
The value was > 50 µg/mL.

Which “Neutralization PSV IC50” value does the source give for B7 here?
The value was 0.0176 µg/mL.

How did the “Neutralization PSV IC50” value turn out when B8 was run?
Its value is 0.02 µg/mL.

With B9 as the binder, how does the “Neutralization PSV IC50” value read?
The value was 0.0452 µg/mL.

Which “Neutralization PSV IC50” value does the source give for B10 here?
Its value is 0.0333 µg/mL.

B11 was tested. Which “Neutralization PSV IC50” value did it give?
The value was > 50 µg/mL.

How did the “Neutralization PSV IC50” value turn out when B12 was run?
The value was > 50 µg/mL.

B13 was tested. Which “Neutralization PSV IC50” value did it give?
The value was > 50 µg/mL.

B14 was tested. Which “Neutralization PSV IC50” value did it give?
Its value is > 50 µg/mL.

How did the “Neutralization PSV IC50” value turn out when B15 was run?
Its value is > 50 µg/mL.

biological target: T1, VP1 pentamer of BKV genotype II (recombinant) (BK virus genotype II, UniProt P14996 30-300); assay: ELISA, coated VP1 pentamer
T1 construct: also called GII; VP1 geno II pentamer; not shown: N-terminal His-tag of pESPRIT002; C-terminal biotin acceptor peptide (BAP) of pESPRIT002

With B2 as the binder, how does the EC50 read?
Its EC50 is 3 µg/mL.

Which EC50 does the source give for B6 here?
The EC50 was 8 µg/mL.

How did the EC50 turn out when B7 was run?
The EC50 was 0.035 µg/mL.

With B8 as the binder, how does the EC50 read?
Its EC50 is 0.055 µg/mL.

For B9, which EC50 is on record?
The EC50 was 0.09 µg/mL.

How did the EC50 turn out when B10 was run?
The EC50 was 0.1 µg/mL.

biological target: T2, VP1 pentamer of BKV genotype IV (recombinant) (BK virus genotype IV, UniProt P14996 30-300); assay: ELISA, coated VP1 pentamer
T2 construct: also called GIV; VP1 BKV subtype IV; not shown: N-terminal His-tag of pESPRIT002; C-terminal biotin acceptor peptide (BAP) of pESPRIT002

With B2 as the binder, how does the EC50 read?
Its EC50 is 4 µg/mL.

For B6, which EC50 is on record?
The EC50 was 18 µg/mL.

B7 was tested. Which EC50 did it give?
Its EC50 is 0.12 µg/mL.

With B8 as the binder, how does the EC50 read?
Its EC50 is 0.035 µg/mL.

How did the EC50 turn out when B9 was run?
Its EC50 is 0.12 µg/mL.

How did the EC50 turn out when B10 was run?
The EC50 was 0.2 µg/mL.
